Sequences and labels used below:
B1: I-1268 (peptide)
peptide: Ac-[αAllylPro]D[tBuAla][B5(3)]DTAA[Phe(3-CF3)]T[PyrS2″]F[Bta]S-NH2
modifications: staple 1-4; staple 4-11 (inferred); not fully specified; printed as Ac-PL3-Asp-Npg-B5-Asp-Thr-Ala-Ala-3F3MeF-Thr-PyrS2-Phe-BztA-Ser-NH2

Starred links: 1 amine or outer side, 2 acyl side, 3 side chain; linkers in the order of their positions; H or OH if unused. Positions of bridges follow the written chain, without caps; N, C: chain ends. Non-standard residues stand in square brackets, D forms with d. Primed or numbered codes have the meaning given here. No end group written: not given here. *: point of attachment. PyrS2″ = (S)-3-amino-1-((pent-4-en-1-yloxy)carbonyl)pyrrolidine-3-carboxylic acid (stapling residue), C=CCCCOC(=O)N1CC[C@@](N[*:1])(C(=O)[*:2])C1; B5(4) = 2,2-bis(4-pentenyl)glycine = 2-amino-2-(pent-4-en-1-yl)hept-6-enoic acid (stitching residue), C=CCCCC(CCCC=C)(N[*:1])C(=O)[*:2]; B5(5) = 2,2-bis(4-pentenyl)glycine, 2-amino-2-(pent-4-en-1-yl)hept-6-enoic acid (stitching residue), C=CCCCC(CCCC=C)(N[*:1])C(=O)[*:2]; PyrS2 = (S)-3-amino-1-((pent-4-en-1-yloxy)carbonyl)pyrrolidine-3-carboxylic acid, C=CCCCOC(=O)N1CC[C@@](N[*:1])(C(=O)[*:2])C1; (NMe2)GlnR(3) = [NMe2]GlnR, N5,N5-dimethyl-L-glutamine, CN(C)C(=O)CC[C@H](N[*:1])C(=O)[*:2]; B5(3) = 2,2-bis(4-pentenyl)glycine (stitching residue), C=CCCCC(CCCC=C)(N[*:1])C(=O)[*:2]; B5 = 2-amino-2-(pent-4-en-1-yl)hept-6-enoic acid, C=CCCCC(CCCC=C)(N[*:1])C(=O)[*:2]; Phe(3-CF3) = N[C@@H](Cc1cccc(C(F)(F)F)c1)C(=O)O; Phe(3-COOH) = N[C@@H](Cc1cccc(C(=O)O)c1)C(=O)O; 2F3MeF = Cc1cccc(C[C@H](N[*:1])C(=O)[*:2])c1F; Phe(2-Cl) = N[C@@H](Cc1ccccc1Cl)C(=O)O; Bta = N[C@@H](Cc1csc2ccccc12)C(=O)O; Lys(iPr) = CC(C)NCCCC[C@H](N)C(=O)O; hTyr = N[C@@H](CCc1ccc(O)cc1)C(=O)O; αAllylPro = C=CC[C@@]1(C(=O)O)CCCN1; tBuAla = CC(C)(C)C[C@H](N)C(=O)O; 3Thi = N[C@@H](Cc1ccsc1)C(=O)O; Cha = N[C@@H](CC1CCCCC1)C(=O)O; Thr(ol) = C[C@@H](O)[C@H](N)CO; hSer = N[C@@H](CCO)C(=O)O; Nle = CCCC[C@H](N)C(=O)O; Aib = CC(C)(N)C(=O)O; iPr = CC(C)*

These results are taken from US20240116985A1, “STAPLED PEPTIDES AND METHODS THEREOF” (priority 2020, published 2024).

The first test has as its target full-length beta-Catenin (Uniprot ID P35222) (Homo sapiens (Human)) (UniProt P35222). Kind of test: fluorescence polarization competition; 10 nM full-length beta-catenin, 10 nM 5FAM-TCF4(10-53) probe. On the technique in general: Fluorescence polarisation rises when a labelled molecule tumbles more slowly, as on binding a larger partner.
Target sequence in this assay (P35222 whole entry): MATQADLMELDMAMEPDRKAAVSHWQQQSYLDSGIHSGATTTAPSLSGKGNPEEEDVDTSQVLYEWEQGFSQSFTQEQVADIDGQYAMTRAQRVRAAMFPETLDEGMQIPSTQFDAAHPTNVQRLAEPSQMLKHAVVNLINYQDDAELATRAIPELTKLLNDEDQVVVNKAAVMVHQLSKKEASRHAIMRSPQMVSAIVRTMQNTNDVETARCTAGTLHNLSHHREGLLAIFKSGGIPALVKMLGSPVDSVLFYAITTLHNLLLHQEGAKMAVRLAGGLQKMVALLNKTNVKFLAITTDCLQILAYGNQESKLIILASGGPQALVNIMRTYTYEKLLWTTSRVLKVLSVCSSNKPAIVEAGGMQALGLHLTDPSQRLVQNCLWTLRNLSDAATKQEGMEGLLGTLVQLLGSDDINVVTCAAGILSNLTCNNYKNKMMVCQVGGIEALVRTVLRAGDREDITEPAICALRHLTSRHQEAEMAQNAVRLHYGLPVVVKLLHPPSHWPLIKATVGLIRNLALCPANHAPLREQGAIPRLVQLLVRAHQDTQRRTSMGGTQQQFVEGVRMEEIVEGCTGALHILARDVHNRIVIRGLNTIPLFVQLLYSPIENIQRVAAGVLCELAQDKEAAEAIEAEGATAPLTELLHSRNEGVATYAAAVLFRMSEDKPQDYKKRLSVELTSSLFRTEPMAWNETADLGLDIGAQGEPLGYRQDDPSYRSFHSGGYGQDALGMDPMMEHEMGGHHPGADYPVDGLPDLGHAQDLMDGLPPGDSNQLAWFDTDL
The molecule Ac-[αAllylPro]D[tBuAla][B5(4)]D[Phe(3-COOH)][Aib]AF[Nle][PyrS2″][3Thi][Bta][(NHEt)GlnR]-NH2 (staple 1-4, 4-11) [I-2552] returned an IC50 of 12 nM. In other words, the double-digit nanomolar range. As for Ac-[αAllylPro]D[tBuAla][B5(4)]D[Phe(3-COOH)][Aib]AF[Nle][PyrS2″][3Thi][Bta][(NMe2)GlnR(3)]-NH2 (staple 1-4, 4-11) [I-2551], the IC50 was 8 nM.

For a further test the target is unchanged. Nature of the test: fluorescence polarization competition; displacement of 5FAM-TCF4(10-53) from full-length beta-catenin.
Target sequence in this assay (P35222 whole entry): as above
In the case of Ac-[αAllylPro]D[Cha][B5(5)]DDAAF[Cha][PyrS2″][Phe(2-Cl)][Bta]S-NH2 (staple 1-4, 4-11) [I-1113], the IC50 is 64 nM.

The next test shares this target. Nature of the test: fluorescence polarization competition; full-length beta-catenin, competitor 5FAM-TCF4(10-53) probe.
Target sequence in this assay (P35222 2-781 limits assumed): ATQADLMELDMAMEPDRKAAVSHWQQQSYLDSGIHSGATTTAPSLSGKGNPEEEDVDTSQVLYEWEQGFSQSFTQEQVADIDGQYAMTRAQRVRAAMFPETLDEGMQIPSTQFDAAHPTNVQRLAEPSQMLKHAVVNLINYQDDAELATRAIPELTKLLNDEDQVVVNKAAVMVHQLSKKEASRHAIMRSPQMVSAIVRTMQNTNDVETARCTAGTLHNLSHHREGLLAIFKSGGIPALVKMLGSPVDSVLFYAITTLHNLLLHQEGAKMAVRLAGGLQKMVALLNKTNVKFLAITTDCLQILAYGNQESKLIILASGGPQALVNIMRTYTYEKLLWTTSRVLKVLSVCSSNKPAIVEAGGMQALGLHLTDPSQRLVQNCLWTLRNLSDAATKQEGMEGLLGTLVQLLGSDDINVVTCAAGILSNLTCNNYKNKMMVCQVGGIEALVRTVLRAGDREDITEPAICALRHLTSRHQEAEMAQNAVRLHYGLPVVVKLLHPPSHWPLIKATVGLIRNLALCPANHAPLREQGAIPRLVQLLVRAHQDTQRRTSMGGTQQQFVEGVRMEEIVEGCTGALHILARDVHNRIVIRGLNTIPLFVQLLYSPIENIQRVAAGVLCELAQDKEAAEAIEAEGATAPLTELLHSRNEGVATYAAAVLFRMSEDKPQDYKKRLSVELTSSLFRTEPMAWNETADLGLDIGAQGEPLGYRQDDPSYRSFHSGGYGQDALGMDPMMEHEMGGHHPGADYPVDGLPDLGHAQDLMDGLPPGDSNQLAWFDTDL
Ac-[αAllylPro]D[tBuAla][B5(4)]DD[Lys(iPr)]AFL[PyrS2″][Phe(2-Cl)][Bta][Thr(ol)] (staple 1-4, 4-11) [I-1313] returned an EC50 of 12 nM. The same measure, in the same setting: for [αAllylPro]D[tBuAla][B5]DDAAFF[PyrS2][Cha][Bta]Q-NH2 (staple 1-4, 4-11) [I-1331] the value was 75 nM.

The target is the same in another test. Kind of test: fluorescence polarization competition, 5FAM-TCF4 10-53 probe on full-length beta-catenin.
Target sequence in this assay (P35222 2-781 limits assumed): as above
Ac-[αAllylPro]D[Cha][B5(5)]DDAAF[Cha][PyrS2″][Phe(2-Cl)][Bta]S-NH2 (staple 1-4, 4-11) [I-1113]: the EC50 stood at 64 nM.

Regarding Ac-[αAllylPro]D[Cha][B5(4)]DDLLFS[PyrS2″][Phe(2-Cl)][Bta]Q-NH2 (staple 1-4, 4-11) [I-1149], the EC50 is 70 nM.

A further test shares this target. Nature of the test: fluorescence polarization competition; competitor 5FAM-TCF4(10-53) probe on full-length beta-catenin.
Target sequence in this assay (P35222 whole entry): as the sequence (P35222 whole entry) above
The molecule Ac-[αAllylPro]D[tBuAla][B5(4)]DYAA[Phe(3-COOH)][hSer][PyrS2″][3Thi][Bta]Q-NH2 (staple 1-4, 4-11; also: earlier eluting HPLC isomer composition) [I-2124] had an IC50 of 29 nM. In other words, the double-digit nanomolar range. Same read-out and setting: then Ac-[αAllylPro]D[tBuAla][B5(5)]D[Phe(3-COOH)]A[dA]FL[PyrS2″][2F3MeF][Bta]A-NH2 (staple 1-4, 4-11; also: later eluting HPLC isomer) [I-2099], with 325 nM; and Ac-[αAllylPro]D[tBuAla][B5(4)]D[hTyr]AA[Phe(3-COOH)][hSer][PyrS2″][3Thi][Bta]Q-NH2 (staple 1-4, 4-11; also: earlier eluting HPLC isomer composition) [I-2116], with 19 nM; and Ac-[αAllylPro]D[tBuAla][B5(4)]DWAA[Phe(3-COOH)]N[PyrS2″][3Thi][Bta]Q-NH2 (staple 1-4, 4-11) [I-2127], with 36 nM. As to Ac-[αAllylPro]N[Cha][B5(4)]DQ[Lys(iPr)]AFN[PyrS2″]F[Bta]H-NH2 (staple 1-4, 4-11) [I-2109], the IC50 amounted to 136 nM.

Molecule Ac-[αAllylPro]D[tBuAla][B5(4)]D[hTyr]AA[Phe(3-COOH)]N[PyrS2″][3Thi][Bta]Q-NH2 (staple 1-4, 4-11; also: later eluting HPLC isomer composition) [I-2115] came in with an IC50 of 29 nM. Still for that read-out and setting: for Ac-[αAllylPro]N[Cha][B5(3)]DQ[Lys(iPr)]AFN[PyrS2″]F[Bta]T-NH2 (staple 1-4, 4-11) [I-2112] the value was 501 nM; for Ac-[αAllylPro]D[tBuAla][B5(4)]DD[Lys(iPr)]AFL[PyrS2″][Phe(2-Cl)][Bta][Thr(ol)] (staple 1-4, 4-11) [I-1313], 12 nM. The same measure, in the same setting: for Ac-[αAllylPro]D[tBuAla][B5(3)]D[Phe(3-COOH)]A[dA]FL[PyrS2″][2F3MeF][Bta][dA]-NH2 (staple 1-4, 4-11) [I-2101] the value was 424 nM; for Ac-[αAllylPro]N[Cha][B5(4)]DQ[Lys(iPr)]AFN[PyrS2″]F[Bta]K-NH2 (staple 1-4, 4-11) [I-2110], 88 nM. Ac-[αAllylPro]D[tBuAla][B5(4)]DHAA[Phe(3-COOH)]L[PyrS2″][3Thi][Bta]Q-NH2 (staple 1-4, 4-11; also: earlier eluting HPLC isomer composition) [I-2122]: the IC50 was 12 nM. Still for that read-out and setting: then Ac-[αAllylPro]D[tBuAla][B5(4)]DYAA[Phe(3-COOH)]L[PyrS2″][3Thi][Bta]Q-NH2 (staple 1-4, 4-11) [I-2126], with 68 nM; and Ac-[αAllylPro]D[tBuAla][B5(4)]DWAA[Phe(3-COOH)]L[PyrS2″][3Thi][Bta]Q-NH2 (staple 1-4, 4-11) [I-2129], with 105 nM. In turn, Ac-[αAllylPro]D[tBuAla][B5(4)]DYAA[Phe(3-COOH)][hSer][PyrS2″][3Thi][Bta]Q-NH2 (staple 1-4, 4-11; also: later eluting HPLC isomer composition) [I-2125] came in with an IC50 of 26 nM. The same measure, in the same setting: then Ac-[αAllylPro]N[Cha][B5(3)]DQ[Lys(iPr)]AFN[PyrS2″]F[Bta]Q-NH2 (staple 1-4, 4-11) [I-2113], with 164 nM; and Ac-[αAllylPro]D[tBuAla][B5(4)]DHAA[Phe(3-COOH)]N[PyrS2″][3Thi][Bta]Q-NH2 (staple 1-4, 4-11; also: earlier eluting HPLC isomer composition) [I-2118], with 21 nM. On the same count and under the same terms, for Ac-[αAllylPro]D[tBuAla][B5(4)]DWAA[Phe(3-COOH)][hSer][PyrS2″][3Thi][Bta]Q-NH2 (staple 1-4, 4-11) [I-2128] the value was 29 nM. On the same count and under the same terms, then Ac-[αAllylPro]D[tBuAla][B5(4)]DHAA[Phe(3-COOH)]L[PyrS2″][3Thi][Bta]Q-NH2 (staple 1-4, 4-11; also: later eluting HPLC isomer composition) [I-2123], with 12 nM; and Ac-[αAllylPro]D[tBuAla][B5(4)]DHAA[Phe(3-COOH)]N[PyrS2″][3Thi][Bta]Q-NH2 (staple 1-4, 4-11; also: later eluting HPLC isomer composition) [I-2119], with 29 nM; and [αAllylPro]D[tBuAla][B5]DDAAFF[PyrS2][Cha][Bta]Q-NH2 (staple 1-4, 4-11) [I-1331], with 75 nM. Take Ac-[αAllylPro]N[Cha][B5(4)]DQ[Lys(iPr)]AFN[PyrS2″]F[Bta]N-NH2 (staple 1-4, 4-11) [I-2111]: the IC50 stood at 180 nM. Against the preceding molecule, the IC50 is about 2.4-fold higher. Same read-out and setting: for Ac-[αAllylPro]N[Cha][B5(4)]DQ[Lys(iPr)]AF[Lys(iPr)][PyrS2″]F[Bta][hSer]-NH2 (staple 1-4, 4-11) [I-2102] the value was 273 nM; for Ac-[αAllylPro]D[tBuAla][B5(4)]D[hTyr]AA[Phe(3-COOH)]N[PyrS2″][3Thi][Bta]Q-NH2 (staple 1-4, 4-11; also: earlier eluting HPLC isomer composition) [I-2114], 32 nM; for Ac-[αAllylPro]D[tBuAla][B5(4)]D[hTyr]AA[Phe(3-COOH)][hSer][PyrS2″][3Thi][Bta]Q-NH2 (staple 1-4, 4-11; also: later eluting HPLC isomer composition) [I-2117], 19 nM. Still for that read-out and setting: for Ac-[αAllylPro]D[tBuAla][B5(4)]D[Phe(3-COOH)]A[dA]FL[PyrS2″][2F3MeF][Bta]A-NH2 (staple 1-4, 4-11; also: earlier-eluting HPLC isomer composition) [I-2098] the value was 260 nM.

The next test shares this target. Kind of test: fluorescence polarization competition vs 5FAM-TCF4(10-53) on full-length beta-catenin.
Target sequence in this assay (P35222 2-781 limits assumed): as the sequence (P35222 2-781 limits assumed) above
The molecule Ac-[αAllylPro]D[Cha][B5(4)]DDLLFS[PyrS2″][Phe(2-Cl)][Bta]Q-NH2 (staple 1-4, 4-11) [I-1149] returned an IC50 of 70 nM.

Another test shares this target. Kind of test: fluorescence polarization competition; full-length beta-catenin + 5FAM-TCF4(10-53) probe.
Target sequence in this assay (P35222 whole entry): as the sequence (P35222 whole entry) above
As for B1, the EC50 was found to be 198 nM.

Usually IC50 stands for the concentration needed to halve the response being measured. The term EC50 denotes the concentration that produces a half-maximal response.
